Results from CN117603358A.

Target: S蛋白, SARS-CoV-2原型毒株 (SARS-CoV-2 (prototype)) (UniProt P0DTC2)
Assay: cell-based or functional assay

Substance: LY-CoV1404 (antibody)
- 假病毒中和活性 IC50: 1.19 ng/mL
